# Laboratory results from PMC4620744.
# Tests used:
# [1] = target: H2A-H2B^30-130 (S. cerevisiae) (UniProt P04911); assay: ITC
# [2] = target: full-length H2A-H2B (S. cerevisiae) (UniProt P04911); assay: fluorescence polarisation
# [3] = target: H2A-H2B^30-130 bearing H2B Y45A and M62A (S. cerevisiae) (UniProt P04911); assay: ITC
# [4] = target: H2A-H2B^30-130 bearing H2B Y45A (S. cerevisiae) (UniProt P04911); assay: ITC
# [5] = target: H2A-H2B^30-130 bearing H2B M62A (S. cerevisiae) (UniProt P04911); assay: ITC
# [6] = target: full-length H2A-H2B (S. cerevisiae) (UniProt P04911); assay: ITC
# [7] = target: Fluorescein-Spt16 MBD (Spt16^965-990) (S. cerevisiae) (UniProt P32558); assay: fluorescence polarisation
# [8] = target: full-length FACT (Spt16-Pob3 heterodimer) (S. cerevisiae) (UniProt P32558); assay: native gel or EMSA
# [9] = target: full-length FACT (Spt16-Pob3 heterodimer) (S. cerevisiae) (UniProt P32558); assay: ITC
substance,measurement,setting,value
Pob3 D509A (from UniProt Q04636 505-529) (peptide),Kd,[1],35000 nM
Pob3-MBD (Pob3^505-529) (from UniProt Q04636 505-529) (peptide),IC50,[2],15700 nM
same,Ki,[2],1300 nM
same,fold decrease in affinity against H2A-H2B^30-130,[3],41 fold
same,fold decrease in affinity against H2A-H2B^30-130,[4],12 fold
same,fold decrease in affinity against H2A-H2B^30-130,[5],9 fold
Pob3-MBD DED509-511AAA (from UniProt Q04636 505-529) (peptide),fold decrease in binding against the unmutated peptide,[1],38 fold
Pob3-MBD DNDAD517-521AAAAA (from UniProt Q04636 505-529) (peptide),fold decrease in binding against the unmutated peptide,[1],17 fold
Pob3-MBD F512A (from UniProt Q04636 505-529) (peptide),fold decrease in binding against the unmutated peptide,[1],> 100 fold
Spt16 E968A (from UniProt P32558 965-990) (peptide),Kd,[1],5000 nM
Spt16-C (domain or fragment),Kd,[6],800 nM
same,stoichiometry N,[6],1
Spt16-MBD (Spt16^965-990) (from UniProt P32558 965-990) (peptide),IC50,[2],21100 nM
same,Ki,[2],2300 nM
Spt16-MBD DES981-983AAA (from UniProt P32558 965-990) (peptide),fold decrease in affinity against the unmutated peptide,[1],10 fold
Spt16-MBD EDEE987-990AAAA (from UniProt P32558 965-990) (peptide),fold decrease in affinity against the unmutated peptide,[1],15 fold
Spt16-MBD SEDD975-978AAAA (from UniProt P32558 965-990) (peptide),fold decrease in affinity against the unmutated peptide,[1],20 fold
Spt16-MBD SEEE965-968AAAA (from UniProt P32558 965-990) (peptide),fold decrease in affinity against the unmutated peptide,[1],12 fold
Spt16-MBD Y972A (from UniProt P32558 965-990) (peptide),fold decrease in binding against the unmutated peptide,[1],48 fold
Spt16^958-990 (from UniProt P32558 958-990) (peptide),fold decrease in binding against H2A-H2B^30-130,[3],42 fold
same,fold decrease in binding against H2A-H2B^30-130,[4],25 fold
same,fold decrease in binding against H2A-H2B^30-130,[5],12 fold
full-length H2A-H2B (from UniProt P04911 1-132; P02293 1-131) (complex),Kd,[7],2300 nM
same,apparent KD of one of two EMSA binding events,[8],100 nM
same,apparent KD of the other of two EMSA binding events,[8],150 nM
same,stoichiometry N,[8],2
same,KD of one of two independent binding sites,[9],340 nM
same,KD of the other of two independent binding sites,[9],1620 nM
same,stoichiometry N,[9],2
